B1: recombinant NAP1L1 (aa 69-391 of isoform 1) with N-terminal His-tag (domain or fragment)
chain: SLPRVVKRRVNALKNLQVKCAQIEAKFYEEVHDLERKYAVLYQPLFDKRFEIINAIYEPTEEECEWKPDEEDEISEELKEKAKIEDEKKDEEKEDPKGIPEFWLTVFKNVDLLSDMVQEHDEPILKHLKDIKVKFSDAGQPMSFVLEFHFEPNEYFTNEVLTKTYRMRSEPDDSDPFSFDGPEIMGCTGCQIDWKKGKNVTLKTIKKKQKHKGRGTVRTVTKTVSNDSFFNFFAPPEVPESGDLDDDAEAILAADFEIGHFLRERIIPRSVLYFTGEAIEDDDDDYDEEGEEADEEGEEEGDEENDPDYDPKKDQNPAECKQQ
B2: recombinant NAP1L4 (aa 2-375 of isoform 1) with N-terminal His-tag (natural protein)
chain: ADHSFSDGVPSDSVEAAKNASNTEKLTDQVMQNPRVLAALQERLDNVPHTPSSYIETLPKAVKRRINALKQLQVRCAHIEAKFYEEVHDLERKYAALYQPLFDKRREFITGDVEPTDAESEWHSENEEEEKLAGDMKSKVVVTEKAAATAEEPDPKGIPEFWFTIFRNVDMLSELVQEYDEPILKHLQDIKVKFSDPGQPMSFVLEFHFEPNDYFTNSVLTKTYKMKSEPDKADPFSFEGPEIVDCDGCTIDWKKGKNVTVKTIKKKQKHKGRGTVRTITKQVPNESFFNFFNPLKASGDGESLDEDSEFTLASDFEIGHFFRERIVPRAVLYFTGEAIEDDDNFEEGEEGEEEELEGDEEGEDEDDAEINPKV

Biological target: the molecule itself
Experiment: SEC

Protein | binding result
B1 | binds
B2 | binds
